± gives the uncertainty stated by the source.

The data set can be described thus: amyloid nucleation score (Sup35N fusion, yeast selection) (log enrichment); library NNK3; higher = more nucleation; inactive = no reads after selection. A digest of the protocol:
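The nucleation score is the DiMSum log enrichment of output over input reads, centred on the mode score of non-aggregating sequences. Only sequences with 100 or more input reads were scored, using Illumina sequencing of input and output plasmid inserts. Psi-negative yeast expressing Sup35N fused to peptides of 20 random codons were induced 24 hours with 100 μM copper sulfate and grown 7 days at 30°C on medium lacking adenine and uracil.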
With MSNLCDLHKN, the amyloid nucleation score entry is “inactive”.
Under MSSHFSSKAFGFHYGF stands “inactive”; under MSVACFSLASVFQWGFFASC, “inactive”.
For the substance MSVLC, the amyloid nucleation score entry was “inactive”.
Under MSVRG stands “inactive”; under MTAMSFKGYAVIGGVIDRCR, “inactive”; under MTAVVDRTSNGYSYVTGHLL, “inactive”.
Under MTDFKSTLSTTSMFTGESLI stands “inactive”; under MTLRRKLSMTAV, “inactive”.
Under MTPMRAAMTLICHMPARRFS stands “inactive”; under MTPTMDENSFLDSSISQMLW, “inactive”; under MTQVQCLTSVNWKVTHVLHR, 1.29 ± 0.15.
In the case of MTWNVGRADGFLRSSCSNFR, the amyloid nucleation score entry is “inactive”.
Under MVIYSLHRTLIIICGRANLT stands “inactive”.
Under MVKSKSTLTCNSIEPCIVIF stands “inactive”.
Under MVMNYWSTCNYSWPEVVISG stands “inactive”; under MVNWPDGRILGSLRNWRHQD, “inactive”; under MVSDIGWYLLQFTERRSCFY, “inactive”.
MVSMNSAAFLFRCHYCLGVR: the amyloid nucleation score result is “inactive”.
Under MVVLAVGRVKLAVYGCRKHG stands “inactive”; under MVYIKILHFVILMSMHFN, “inactive”; under MWMLLFGCSSCWWSCNRLSP, -0.239 ± 0.8.
Turning to MWWGLAPIFWLLITTTDCGY, the amyloid nucleation score entry was “inactive”.
Under MYAVSGVNAQGWWLLADYEL stands “inactive”.
Consider MYETVR, for which the amyloid nucleation score result is “inactive”.
Under MYFYYYGSRYYNNSDCLLSS stands “inactive”.
As for MYLFRENGHQSGNVY, the amyloid nucleation score entry is “inactive”.
Under MYLITGAFLCIHQHG stands 1.71 ± 0.075; under MYLIYGHGTIIICTESVSVH, 0.361 ± 0.15.
Under MYRNECSMLSSIHLTVPSGN stands “inactive”; under MYSHRRGRKLRLLESFYNLS, “inactive”; under NAFLIGTDILRFMRVLFKQL, “inactive”.
Under NAGYSNRCQIGYICSVRACK stands “inactive”.
For NAHLRCMTTILGLFQTFGRG, the amyloid nucleation score worked out at 2.02 ± 0.063.
With NAIGEISSVYSCTL, the amyloid nucleation score entry is “inactive”.
Under NALRFNLWMLNTVKVEYRSD stands 2.15 ± 0.067; under NAVRLVGSPAVVVSTMGHN, “inactive”; under NAWIFVKRFS, “inactive”.
Under NAYTAHGYDKLRNQSKVAYR stands “inactive”.
Consider NAYVEGRSWVLVIENKDFAV, for which the amyloid nucleation score result is “inactive”.
Under NCGRNRNPPTESCPEVGPRL stands “inactive”; under NCGVMEYGGILISYFE, “inactive”; under NCKALGFNWALMGKSMSLRG, “inactive”.
For NCLGPWPCLTTILYLRSLEF, the amyloid nucleation score entry was “inactive”.
Under NCMTLCLIDIRYSFENFFSF stands 2.18 ± 0.071; under NCSELGSS, “inactive”.
Under NCSWGRRKETTDLSGSKCWT stands 0.881 ± 0.23.
Under NCVCEWTAFLYIPSIWGFEH stands 1.78 ± 0.098.
Consider NCWVNKIDVFLAESSMQCKA, for which the amyloid nucleation score result was “inactive”.
Under NDFSKGLCMWTFNWNDTYDQ stands 1.75 ± 0.077; under NDIITLSQTLVELSPFGWLS, “inactive”; under NDLWIEMFKS, “inactive”.
Under NEDLIDVQVVHC stands “inactive”; under NEFVSYNLLVTGGWSRCWYF, “inactive”; under NEHGEAGCAYEAKGAVGVKS, “inactive”.
Under NENFTNAQQNFYDCVF stands “inactive”; under NENTALSTWAPGYLINSYRA, “inactive”.
Take NERREANGWSYRDLHGSGFE: the amyloid nucleation score entry is “inactive”.
Under NEWIKDINVI stands “inactive”; under NFCFLCSWCIL, 2.56 ± 0.052.
Under NFFAACNMMVLPFSMDFCSR stands 2.77 ± 0.071; under NFFCSA, “inactive”; under NFLKSG, “inactive”.
Under NFLLVPYLSPKLDMGGYHLW stands “inactive”; under NFLSSNFKKALHLFPISDCN, “inactive”.
Turning to NFPGLTASMIKCGGNQCYVG, the amyloid nucleation score result is “inactive”.
In the case of NFQTNGTLKHNN, the amyloid nucleation score entry is “inactive”.
Under NFRLSVLKVLCYVIVED stands 2.14 ± 0.057.
Under NFSCSSRNRWMCMDVGKVCR stands -0.287 ± 0.34; under NFTSFCFSKMSRLEDSGQ, “inactive”; under NFVPVYSLSRRAVLGHTGWC, “inactive”.
Under NFWNWLHNPWAPM stands “inactive”; under NGEKLFSEDVVSYWVDVYSR, “inactive”.
NGFKEGLIAVLREQYLSYQ: the amyloid nucleation score result was “inactive”.
Turning to NGHWL, the amyloid nucleation score entry was “inactive”.
Under NGMASMIRGIYNSVPHIRGL stands “inactive”.
NGPEGSLFDLSDFCHFCLNR displayed an amyloid nucleation score of 0.955 ± 0.14.
Under NGVFWGRKSRSYEFWSFYFQ stands -0.052 ± 0.62.
Turning to NGVVLLQIKIRDPRSCWWGV, the amyloid nucleation score entry is “inactive”.
Under NHKEWWFTVYLTSGVVCDLG stands “inactive”.
Under NHLIQIG stands “inactive”; under NHQLGIGYFCDTYLCDHWDP, “inactive”; under NHVTVYVI, 0.555 ± 0.29.
Under NIARRTIKLTPFFSIFCVYS stands 3.2 ± 0.055.
NIGWSVCERL: the amyloid nucleation score entry was “inactive”.
Under NIGYSMLESPFIIIDICNSC stands 0.619 ± 0.13; under NILPRRGEQAV, “inactive”.
Regarding NINIMPG, the amyloid nucleation score result is “inactive”.
For NIRWGTYVSKFVLYLAITTR, the amyloid nucleation score result was “inactive”.
Turning to NIRYVWCQKRLTCARSWNPV, the amyloid nucleation score result was “inactive”.
Under NISLN stands “inactive”.
Under NISYKW stands 0.377 ± 0.34; under NIWNWNNRVLFCEAGMGTCI, “inactive”.
Under NIWVQ stands “inactive”; under NKGSVDGYMFSTGVTFLMLE, “inactive”; under NKLIRSEVSLLAMCMCSGNG, “inactive”.
For NKVISSSLTFRFIKVQFIYH, the amyloid nucleation score result was “inactive”.
Under NKVVMGNLWGPPVFDRCDKG stands “inactive”; under NLCFCALCGKYIRVNVVAM, 1.52 ± 0.088; under NLCRNDDSLFFCSS, “inactive”.
Under NLCVYWYSWGRSWGDFVTGY stands 0.269 ± 0.36; under NLDLSGGESASWRNFSFFLK, “inactive”.
As to NLESTNTMSYIWYRADSKCG, the amyloid nucleation score entry is “inactive”.
Substance NLFVNL came in with an amyloid nucleation score of 1.13 ± 0.15.
Under NLIFRFPLAIKWSLFSLDCL stands “inactive”; under NLLSAVY, 0.787 ± 0.28; under NLLVFDACHGVIRYGKTRVA, “inactive”.
Under NLLWIISHNMNGVSRIISSV stands “inactive”; under NLMRSILWVEYVQDCNCCSG, 2.54 ± 0.07.
Under NLNSFSGAFVLIWGATVHFC stands 1.96 ± 0.075.
In the case of NLNWGTLSTRFYCVEDS, the amyloid nucleation score entry is “inactive”.
Turning to NLNYNLSPLTEYSVSD, the amyloid nucleation score entry is “inactive”.
Under NLPNGMFKIHVDG stands “inactive”; under NLRFRSIFSS, “inactive”.
Under NLSSSDTRSVCASWVTR stands “inactive”; under NLTVGSTILIPC, “inactive”.
As for NLTYVMGSGWLLYQCVIM, the amyloid nucleation score worked out at 2.61 ± 0.057.
Under NLVACIVNTCYL stands 1.52 ± 0.14; under NLVGTMATRYCRAHQEAREW, “inactive”.
Under NLVYLLLRLYMMTFYQQRCP stands “inactive”; under NLYMGRPKRRVIGYLVACFA, “inactive”.
Under NLYMLNTQGMSVLISCVGRI stands 0.996 ± 0.091; under NMCSFFFRVSPVLQVQVSLV, 1.61 ± 0.075; under NMENLKRGFVIWS, “inactive”.
Substance NMFCVPYVKVESGCIMKRGN displayed an amyloid nucleation score of 1.91 ± 0.06.
Under NMFPGSISLEWWGGTQLRWE stands 0.909 ± 0.23; under NMGTGGRLEGPVDSGHSEKF, “inactive”; under NMLYTKRNTVSSALVIYCVN, “inactive”.
Under NMQLVYDRMDE stands “inactive”; under NMRRRYC, “inactive”.
In the case of NMSTAWRRGNPVCTDSKYRV, the amyloid nucleation score entry is “inactive”.

Values taken from the supplement of paper PMC12042874.
